The text below walks through data of the Human Domainome abundance scans (Beltran et al. 2025).

± gives the uncertainty stated by the source.

B1: Membrane-associated guanylate kinase, WW and PDZ domain-containing protein 2, residues 601 to 682; numbered along this chain, Q86UL8 (parent)
chain: AELMTLTIVKGAQGFGFTIADSPTGQRVKQILDIQGCPGLCEGDLIVEINQQNVQNLSHTEVVDILKDCPIGSETSLIIHRG

This data set covers variants of B1. In words: abundance fitness (aPCA) (normalised: wild type 0, dead -1); higher = more abundant; growth selection in yeast, the domain comes from the species named. The conditions noted are these: Homo sapiens.
For Q52F, the abundance fitness was -0.054 ± 0.045.
Turning to Q52S, the abundance fitness is -0.037 ± 0.037.
On to Q52A, for which the abundance fitness was -0.037 ± 0.044.
In the case of Q52V, the abundance fitness is -0.039 ± 0.039.
For the variant Q52C, the abundance fitness is -0.052 ± 0.066.
Turning to Q52E, the abundance fitness is -0.016 ± 0.069.
As to Q52I, the abundance fitness worked out at 0.038 ± 0.051.
On to Q52H, for which the abundance fitness was -0.029 ± 0.043.
C69H: the abundance fitness is -0.329 ± 0.2.
With C69W the figure was -0.25 ± 0.11.
For the variant C69P, the abundance fitness is -0.421 ± 0.22.
On to E48M, for which the abundance fitness is -0.144 ± 0.2.
For E48K, the abundance fitness was -0.117 ± 0.11.
Take E48V: the abundance fitness is -0.086 ± 0.087.
For the variant S58Q, the abundance fitness was -0.057 ± 0.092.
With S58T the figure was -0.135 ± 0.095; with S58Y, -0.226 ± 0.26.
As for S58R, the abundance fitness is -0.119 ± 0.075.
As to S58P, the abundance fitness was -0.174 ± 0.088.
Consider D44G, for which the abundance fitness was -0.859 ± 0.11.
On to D44E, for which the abundance fitness is -0.874 ± 0.22.
Consider D44T, for which the abundance fitness is -0.95 ± 0.26.
For D44A the value was -0.263 ± 0.11.
On to E2T, for which the abundance fitness is -0.034 ± 0.038.
With E2I the figure was -0.139 ± 0.065; with E2F, -0.113 ± 0.059.
For E2S, the abundance fitness was -0.061 ± 0.034.
On to E2G, for which the abundance fitness is -0.049 ± 0.034.
As for Q26W, the abundance fitness is -0.105 ± 0.051.
Take Q26R: the abundance fitness is -0.032 ± 0.039.
Turning to Q26I, the abundance fitness is -0.111 ± 0.12.
With Q26F the figure was -0.194 ± 0.23; with Q26G, -0.032 ± 0.04.
With Q13W the figure was -0.101 ± 0.044; with Q13H, -0.161 ± 0.07.
Take Q13K: the abundance fitness was -0.06 ± 0.039.
For Q13S the value was -0.027 ± 0.033; for Q13P, -0.001 ± 0.04.
With I31A the figure was -0.101 ± 0.31; with I31W, -0.665 ± 0.15; with I31R, -0.283 ± 0.081.
For the variant I31Q, the abundance fitness was -0.091 ± 0.22.
As for I31C, the abundance fitness is -0.185 ± 0.093.
Turning to L6T, the abundance fitness was -0.059 ± 0.05.
L6E: the abundance fitness was -0.193 ± 0.043.
With L6A, the abundance fitness was -0.124 ± 0.036.
In the case of L6P, the abundance fitness is -0.204 ± 0.053.
Turning to L6V, the abundance fitness was -0.021 ± 0.036.
With N56A the figure was -0.076 ± 0.071.
With N56M the figure was -0.06 ± 0.11.
In the case of N56F, the abundance fitness is -0.099 ± 0.25.
N56E: the abundance fitness came to 0.221 ± 0.23.
As for A20R, the abundance fitness is -0.172 ± 0.081.
For A20I, the abundance fitness came out at 0.203 ± 0.27.
Take A20N: the abundance fitness was -0.142 ± 0.17.
For F17G the value was -1.11 ± 0.089; for F17D, -1.18 ± 0.28; for F17N, -1.36 ± 0.36.
Turning to F17Y, the abundance fitness is -0.277 ± 0.061.
On to F17P, for which the abundance fitness is -1.04 ± 0.1.
F17R: the abundance fitness is -1.12 ± 0.091.
With Q35H the figure was 0.08 ± 0.29; with Q35R, 0.021 ± 0.12.
For Q35Y, the abundance fitness was -0.066 ± 0.24.
As to T60Y, the abundance fitness was -0.165 ± 0.2.
In the case of T60M, the abundance fitness was 0.012 ± 0.11.
With T60P the figure was -0.198 ± 0.15.
Turning to T60N, the abundance fitness came to 0.054 ± 0.11.
For the variant I49S, the abundance fitness was -0.97 ± 0.49.
With I49H, the abundance fitness is -0.964 ± 0.23.
For I49G the value was -1.08 ± 0.31; for I49L, 0.011 ± 0.087; for I49V, 0.072 ± 0.082.
In the case of I49A, the abundance fitness is -0.173 ± 0.078.
For I49T the value was -0.371 ± 0.34.
In the case of T5E, the abundance fitness was -0.092 ± 0.054.
Turning to T5Y, the abundance fitness was -0.159 ± 0.057.
For T5G the value was -0.121 ± 0.042; for T5N, 0.03 ± 0.066; for T5S, 0.02 ± 0.042.
With T5A, the abundance fitness was -0.098 ± 0.043.
With S76D the figure was -0.124 ± 0.098; with S76V, -0.031 ± 0.063; with S76Q, 0 ± 0.1.
Take G43H: the abundance fitness worked out at 0.004 ± 0.39.
With G43M the figure was -0.261 ± 0.17.
For V28S, the abundance fitness is -0.849 ± 0.2.
Take V28C: the abundance fitness is -0.077 ± 0.14.
For V28Q the value was -0.718 ± 0.38; for V28N, -0.564 ± 0.29.
Take Q55F: the abundance fitness was 0.043 ± 0.45.
With Q55I, the abundance fitness is -0.02 ± 0.12.
Turning to Q55W, the abundance fitness is -0.133 ± 0.082.
As for E42N, the abundance fitness is -0.087 ± 0.11.
Take E42K: the abundance fitness was -0.016 ± 0.069.
E42C: the abundance fitness was -0.123 ± 0.064.
As for E42T, the abundance fitness is -0.015 ± 0.061.
For P38G the value was -0.067 ± 0.077.
Turning to P38T, the abundance fitness was -0.038 ± 0.096.
With P38A the figure was -0.096 ± 0.12.
With P38E the figure was -0.11 ± 0.09; with P38L, 0.037 ± 0.098.
Regarding P38S, the abundance fitness is -0.056 ± 0.094.
Turning to K10M, the abundance fitness is -0.102 ± 0.047.
With K10L, the abundance fitness is -0.239 ± 0.035.
For K10D the value was -1.29 ± 0.19.
For K10W, the abundance fitness was -0.446 ± 0.046.
In the case of K10R, the abundance fitness was -0.107 ± 0.03.
With K10C the figure was -0.192 ± 0.046; with D33K, -0.192 ± 0.084; with D33C, -0.092 ± 0.08.
With D33P, the abundance fitness is -0.147 ± 0.051.
With D21W, the abundance fitness was -0.111 ± 0.065.
As for D21H, the abundance fitness is -0.068 ± 0.45.
For D21K the value was -0.039 ± 0.2.
On to L66R, for which the abundance fitness is -1.11 ± 0.24.
For the variant Q30W, the abundance fitness turned out to be 0.04 ± 0.27.
As for Q30V, the abundance fitness was -0.102 ± 0.07.
Turning to Q30R, the abundance fitness is -0.111 ± 0.094.
For Q30D the value was -0.022 ± 0.2.
With Q30P the figure was -0.103 ± 0.11.
Consider Q30L, for which the abundance fitness came out at 0.066 ± 0.1.
As to Q30F, the abundance fitness was found to be 0.234 ± 0.24.
For N53R, the abundance fitness is -0.061 ± 0.033.
Take N53Y: the abundance fitness was -0.064 ± 0.038.
With N53G the figure was -0.051 ± 0.037; with A12R, -0.029 ± 0.032; with A12I, -0.137 ± 0.065.
For V63H, the abundance fitness is -0.493 ± 0.21.
For V63S, the abundance fitness is -0.099 ± 0.13.
For R81H the value was 0.048 ± 0.23; for R81N, -0.144 ± 0.37; for R81I, -0.668 ± 0.25.
With R81E the figure was -0.419 ± 0.1.
For R81G, the abundance fitness was 0.017 ± 0.067.
For the variant R81Q, the abundance fitness is -0.051 ± 0.16.
T18E: the abundance fitness was 0 ± 0.039.
With T18Q the figure was -0.066 ± 0.048.
For the variant T18H, the abundance fitness is -0.134 ± 0.073.
For T18I the value was 0.008 ± 0.065.
For T18V the value was -0.024 ± 0.033.
Take T18P: the abundance fitness is -1.1 ± 0.12.
Turning to P70S, the abundance fitness is -0.001 ± 0.12.
For the variant P70F, the abundance fitness is -0.074 ± 0.12.
Take P70R: the abundance fitness was -0.003 ± 0.067.
Take P70Q: the abundance fitness is -0.084 ± 0.13.
For C37A, the abundance fitness was -0.195 ± 0.11.
Take C37I: the abundance fitness is -0.173 ± 0.27.
Regarding C37Y, the abundance fitness is -0.036 ± 0.21.
On to C37V, for which the abundance fitness was -0.119 ± 0.099.
For C37T the value was -0.05 ± 0.15; for C37P, -0.384 ± 0.18; for C37E, 0.005 ± 0.12.
Consider V47W, for which the abundance fitness was -0.09 ± 0.11.
As for V47R, the abundance fitness is -0.018 ± 0.073.
G36L: the abundance fitness was -0.261 ± 0.22.
As to G36S, the abundance fitness is -0.158 ± 0.081.
Turning to G36R, the abundance fitness is -0.069 ± 0.08.
Consider T75D, for which the abundance fitness was -0.09 ± 0.21.
With T75P, the abundance fitness is -0.164 ± 0.078.
For T75E the value was -0.072 ± 0.11; for G14A, -0.152 ± 0.036; for G14M, -0.089 ± 0.046.
On to G14L, for which the abundance fitness is -0.105 ± 0.032.
Consider G14C, for which the abundance fitness was -0.11 ± 0.038.
For G14D the value was 0.07 ± 0.046; for G14I, -0.168 ± 0.039.
